In US20160208003A1 (AFFITECH RESEARCH, published 2016):

How the values were obtained:
[1] = target: T1, human CC chemokine receptor 4 (CCR4) (human, UniProt P51679 1-360); assay: flow cytometry competition on DT-40-CCR4+ cells; unlabelled IgG titrated, competitor 0.7 nM biotinylated IgG 9E
T1 construct: whole, on cells; Always presented on cells; also called CD194; human CCR4
T1 sequence (looked up): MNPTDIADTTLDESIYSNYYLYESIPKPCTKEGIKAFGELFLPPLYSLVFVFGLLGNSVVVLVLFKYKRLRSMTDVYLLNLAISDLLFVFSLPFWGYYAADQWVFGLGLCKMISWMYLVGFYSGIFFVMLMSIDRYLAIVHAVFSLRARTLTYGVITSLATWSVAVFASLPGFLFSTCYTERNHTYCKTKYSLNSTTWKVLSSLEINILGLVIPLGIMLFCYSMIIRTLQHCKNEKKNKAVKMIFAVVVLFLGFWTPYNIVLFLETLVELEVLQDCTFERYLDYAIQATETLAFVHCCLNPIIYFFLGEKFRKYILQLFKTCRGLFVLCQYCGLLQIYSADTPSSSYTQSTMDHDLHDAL
Protocol: (§1) Further competition experiments were carried out to assess whether or not the test antibodies recognise the same or overlapping epitopes, and to determine their relative affinities for CCR4. Antibodies 9E10J, 9E and KM3060var were tested using labelled 9E as a competitor.
(§2) DT40 and CCRF-CEM cells were cultivated as described in Example 2. The cells were harvested from culture flasks, washed 2 times with PBS (400×g, 5 min, 4° C.) and resuspended in PBS containing 0.2% BSA and 0.09% NaN3. 1×10^5 cells per well were aliquoted into V-shaped 96-well plates (Griner Bio-One, Frikenhausen, Germany). Cells were centrifuged (400×g, 5 min, 4° C.) and resuspended in 50 μl IgG 9E10J or KM3060var (dilution series starting at 5 μg/ml) mixed with biotinylated competitor antibody 9E (0.1 or 0.5 μg/ml). The cells were incubated for 2 hours at 4° C., mixing with a pipette every 45 min. The cells were washed three times with 150 μl PBS with 0.2% BSA and 0.09% NaN3 and stained with 3 μg/ml streptavidin PE (BD Biosciences) for 45 minutes at 4° C. Cells were washed, resuspended in 200 μl PBS with 0.2% BSA and 0.09% NaN3, and transferred to a U-shaped 96 well Costar (Corning, Schiphol-Rijik, The Netherlands) plate for flow cytometry using an FACS Canto II flow cytometer (BD Biosciences, Heidelberg, Germany).

[2] = target: T1, human CC chemokine receptor 4 (CCR4); assay: calculated from the IC50; CCRF-CEM cells, competitor biotinylated MDC
Protocol: The competition binding assays were performed with biotinylated MDC or biotinylated TARC on DT-40-CCR4+ and CCRF-CEM cells. DT40 and CCRF-CEM cells were cultured as described in Example 2. TARC and MDC were biotinylated using standard procedures. The biotinylation process causes some losses, so the concentrations of biotinylated MDC and TARC recited herein are approximate.
The cells were harvested from culture flasks, washed 2 times with PBS (400×g, 5 min, 4° C.) and resuspended in PBS containing 0.2% BSA and 0.09% NaN3. 1×10^5 cells per well were aliquoted into V-shaped 96-well plates (Greiner Bio-One, Frikenhausen, Germany). Cells were centrifuged (400×g, 5 min, 4° C.) and resuspended in 50 μl IgG, single chain or unlabeled ligand (1:10 dilution series starting on 100/500/26, 4 μg/ml) mixed with a fixed concentration of biotinylated ligand (10 or 20 nM, see legend to FIG. 24). The cells were incubated for 2 hours at 4° C. and mixed with a pipette every 45 min. The cells were washed three times with 150 μl PBS with 0.2% BSA and 0.09% NaN3 and stained with 3 μg/ml streptavidin PE (BD Biosciences) for 45 minutes at 4° C. […] Apparent binding affinities (KD) were calculated according to the following equation derived from previously described methods (Kipriyanov et al, 1997b; Schodin & Kranz, 1993): […]

[3] = target: T1, human CC chemokine receptor 4 (CCR4); assay: calculated from the IC50; CCRF-CEM cells, competitor 0.7 nM biotinylated IgG 9E
Protocol: as §2

[4] = target: T1, human CC chemokine receptor 4 (CCR4); assay: flow cytometry, IgG titration on CCRF-CEM cells, anti-human-PE, MFI
[5] = target: T1, human CC chemokine receptor 4 (CCR4); assay: flow cytometry competition on DT-40-CCR4+ cells; unlabelled IgG titrated, competitor 3.3 nM biotinylated IgG 9E
Protocol: as §1, §2

[6] = target: T1, human CC chemokine receptor 4 (CCR4); assay: flow cytometry, IgG titration on CCRF-CEM cells (natural CCR4+), triplicates, RPE goat anti-human IgG, Median (YLW-HLog)
Excerpt: As a positive control, in-house cloned and expressed KM3060var IgG which is specific for an epitope present in positions 2-29 in N-terminal part of human CCR4 (EP1270595) was used. An anti-GFP antibody (raised against the green fluorescent protein) or the anti-VZV antibody (raised against Varicella zoster virus) were used as negative controls (anti-GFP both as scFv and IgG, while anti-VZV only as scFv).
For the flow cytometry experiments, the cells were harvested from the culture flasks, washed 2 times with PBS, re-suspended in PBS with 0.2% BSA and 0.09% NaN₃ and finally aliquoted 1×10⁵ cells per well into V-shaped 96-well plates (Greiner Bio-One, Frickenhausen, Germany). Cells were centrifuged at 400×g for 5 min and then incubated at 4° C. for 45 min with different antibody dilutions.
After washing with PBS with 0.2% BSA and 0.09% NaN₃, the cells were stained with 10 μg/ml of RPE-conjugated goat anti-human IgG (AbDSerotec, Düsseldorf, Germany) for 30 minutes at 4° C. The stained cells were washed, re-suspended in 200 μl PBS with 0.2% BSA and 0.09% NaN₃ and transferred to a U-shaped 96-well plate (Corning, Schiphol-Rijk, The Netherlands) for acquisition on EasyCyte flow cytometer (Guava Technologies, Hayward, Calif., USA).

Binder	IC50 [1]	Kd [2]	Kd [3]	EC50 (read off the curve) [4]	IC50 [5]	EC50 (read off the curve) [6]
9E10J IgG (full length human IgG1, lambda) (antibody, V domains shown, also called IgG 9E10J; unmodified 9E10J) VH: QVQLVQSGAEVKKPGSSVKVSCKASGGTFSSYAISWVRQAPGQGLEWMGGIIPIFGTANYAQKFQGRVTMTRDTSTSTVYMELSSLRSEDTAVYYCARRGGSYFDYWGQGTLVTVSS VL: SYVLTQPPSASGTPGQSVTISCSGSTSNIGSHYVFWYQQLPGTAPRLLIYRNHQRPSGVPDRLSGSKSGTSASLAISGLRSEDEADYYCAVWDDTLSGWVFGGGTKLTVLG	0.06 nM	0.2 nM	0.06 nM	~0.1 nM	0.15 nM	
9E IgG (full length human IgG1, lambda) (antibody, V domains shown, also called IgG 9E; IgG1 9E) VH: QVQLVQSGAEVKKPGSSVKVSCKASGGTFSNYAISWVRQAPGQGLEWMGGIIPIFGTANYAQKFQGRVTITADESTSTAYMELSSLRSEDTAVYYCARRGGSYFDYWGQGTLVTVSS VL: SYVLTQPPSASGTPGQSVTISCSGSTSNIGSHYVFWYQQLPGTAPRLLIYRNHQRPSGVPDRLSGSKSGTSASLAISGLRSEDEADYYCAVWDDTLSGWVFGGGTKLTVLG	0.44 nM		0.33 nM	~0.3 nM	3.5 nM	~0.4 nM
